The text below walks through data of publication PMC3215742.

Test [1] has as its target Renilla luciferase (RLuc)-fused tetherin (human) (UniProt Q10589).
Test [2] shares this target. Nature of the test: FRET or BRET; BRET in HEK293T cells cotransfected with RLuc-tetherin and Vpu-eYFP (or eYFP alone); media with 10 µM BIT225 or DMSO from 6 h after transfection; cells collected 48 h post-transfection, washed in PBS; coelenterazine H 5 µM; Synergy 4 plate reader.

UniProt Q10589, sequence (Q10589 1-161): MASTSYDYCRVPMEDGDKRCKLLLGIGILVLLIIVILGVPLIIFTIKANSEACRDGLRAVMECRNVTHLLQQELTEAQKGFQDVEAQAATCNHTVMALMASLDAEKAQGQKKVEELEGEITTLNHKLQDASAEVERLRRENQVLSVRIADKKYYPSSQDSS

Regarding “enhanced yellow fluorescent protein (eYFP)-fused Vpu (from UniProt P05919 1-82) (natural protein)”, in test [1], the tetherin cell surface expression (flow cytometry) in wt infected CEM-SS cells compared to uninfected populations; not affected by 10 µM BIT225 was 75% and the tetherin cell surface expression (flow cytometry) in wt infected SupT1-tetherin^pos cells compared to uninfected controls; not affected by 10 µM BIT225 stood at 70%. In addition, in test [2], the BRET signal (DMSO, without BIT225) worked out at 52 and the BRET signal (with 10 µM BIT225) was 51.
